From patent publication US20260028400A1 (AIMED BIO, published 2026) come the findings set out here.

B1: P015044-vc-PAB-MMAE (antibody, IgG1, V domains shown)
VH: EVQLLESGGGLVQPGGSLRLSCAASGFTFSNYAMHWVRQAPGKGLEWVSIIYPDDDTRYNPSFRGRFTISRDNSKNTLYLQMNSLRAEDTAVYYCARDLLYAGDYWGQGTLVTVSS
VL: QSVLTQPPSASGTPGQRVTISCGGNNIESKAVHWYQQLPGTAPKLLIYANNKRPSGVPDRFSGSKSGTSASLAISGLRSEDEADYYCQSYDSNKVVFGGGTKLTVL
modifications: maleimidocaproyl-valine-citrulline-p-aminobenzyloxycarbonyl monomethyl auristatin E on cysteine sulfhydryls of reduced disulfides; positions not given; average 3.0 drugs per antibody
B2: P015004-vc-PAB-MMAE (antibody, IgG1, V domains shown)
VH: EVQLLESGGGLVQPGGSLRLSCAASGFTFSDYAMAWVRQAPGKGLEWVSIIYPGDSETIYSPSFEGRFTISRDNSKNTLYLQMNSLRAEDTAVYYCARDTYWEGYFDLWGQGTLVTVSS
VL: EIVLTQSPGTLSLSPGERATLSCRASQGISNYLAWYQQKPGQAPRLLIYDASNLESGIPDRFSGSGSGTDFTLTISRLEPEDFAVYYCQQYANLPYTFGQGTKVEIK
modifications: maleimidocaproyl-valine-citrulline-p-aminobenzyloxycarbonyl monomethyl auristatin E on cysteine sulfhydryls of reduced disulfides; positions not given; average 3.0 drugs per antibody
B3: P015043-vcPAB-MMAE (antibody, IgG1, V domains shown)
VH: EVQLLESGGGLVQPGGSLRLSCAASGFTFSNYDMSWVRQAPGKGLEWVSWISPGGSSIYYADSVKGRFTISRDNSKNTLYLQMNSLRAEDTAVYYCAKTLTRFDYWGQGTLVTVSS
VL: QSVLTQPPSASGTPGQRVTISCTGSSSNIGNNNVSWYQQLPGTAPKLLIYYDSHRPSGVPDRFSGSKSGTSASLAISGLRSEDEADYYCGTWDSSLSGYVFGGGTKLTVL
modifications: maleimidocaproyl-valine-citrulline-p-aminobenzyloxycarbonyl monomethyl auristatin E on cysteine sulfhydryls of reduced disulfides; positions not given; DAR 3.32
B4: P015001 (antibody, V domains shown)
VH: EVQLLESGGGLAQPGGSLRLSCAASGFTFSNYDMSWVRQAPGKGPEWVSGIYSGNSNTYYADSVKGRFTISRDNSKNTLYLQMNSLRAEDTAVYYCARDLQYTEWAGFDYWGQGTLVTVSS
VL: B3 VL with T23S, N31S, N33D, S35T, Y51D, H54K, G90A, T91A, S94D
B5: P015002 (antibody, V domains shown)
VH: EVQLLESGGGLVQPGGSLRLSCAASGFTFSDYSMSWVRQAPGKGLEWVSGISHNGGSTYYADSVKGRFTISRDNSKNTLYLQMSSLRAEDTAVYYCARDVSRWSKTRWSYDNAMDVWGQGTLVTVSS
VL: B3 VL with N31S, N33Y, Q38R, Y51S, H54N, G90A, S94A, G98A
B6: P015042v1-1 (antibody, V domains shown)
VH: EVQLLESGGGLVQPGGSLRLSCAASGFTFSDYAMSWVRQAPGKGLEWVSVISSDVGSIYYADSVKGRFTISRDNSKNTLYLQMNSLRAEDTAVYYCAKDRSRDMEVDFDYWGQGTLVTVSS
VL: B3 VL with T23S, N31S, N33Y, S35T, Y51D, D52S, H54Q, S94Y, S97N
notes: Variant of P015042v1, tested as IgG; also called HC G55 substituted with V
B7: P015042v1-5 (antibody, V domains shown)
VH: B6 VH with V55G
VL: B3 VL with T23S, N31S, N33Y, S35T, Y51D, D52S, H54Q, S94Y, S97N, G98A
notes: Variant of P015042v1, tested as IgG; also called LC G95 substituted with A
B8: P015005 (antibody, V domains shown)
VH: B5 VH
VL: B3 VL with T23S, N31S, N33Y, S35N, Y51S, T91S, S97N, G98A, F101L
B9: P015042v1-3 (antibody, V domains shown)
VH: B6 VH with V55G
VL: B3 VL with T23S, N31S, N33Y, S35T, Y51D, D52A, H54Q, S94Y, S97N
notes: Variant of P015042v1, tested as IgG; also called LC S51 substituted with A
B10: P015042v1-2 (antibody, V domains shown)
VH: B6 VH with V55K
VL: B3 VL with T23S, N31S, N33Y, S35T, Y51D, D52S, H54Q, S94Y, S97N
notes: Variant of P015042v1, tested as IgG; also called HC G55 substituted with K
B11: P015042v1-4 (antibody, V domains shown)
VH: B6 VH with V55G
VL: B3 VL with T23S, N31S, N33Y, S35T, Y51D, D52K, H54Q, S94Y, S97N
notes: Variant of P015042v1, tested as IgG; also called LC S51 substituted with K
B12: P015043 (antibody, V domains shown)
VH: B3 VH
VL: B3 VL

Where a chain is given by its changes, count along the chain named.

T3 sequence (Q9Z139 30-403 limits assumed): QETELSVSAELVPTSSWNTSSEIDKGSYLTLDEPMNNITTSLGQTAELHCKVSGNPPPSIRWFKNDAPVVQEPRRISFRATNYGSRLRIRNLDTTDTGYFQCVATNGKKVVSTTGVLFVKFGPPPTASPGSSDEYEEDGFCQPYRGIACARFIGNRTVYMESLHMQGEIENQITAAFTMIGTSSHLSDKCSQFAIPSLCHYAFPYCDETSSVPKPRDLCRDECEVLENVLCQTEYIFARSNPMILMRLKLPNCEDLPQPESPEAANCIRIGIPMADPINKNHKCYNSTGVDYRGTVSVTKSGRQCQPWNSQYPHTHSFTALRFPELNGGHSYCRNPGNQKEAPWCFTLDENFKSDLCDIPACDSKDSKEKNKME
T4 sequence (Q01973 165-305 limits assumed): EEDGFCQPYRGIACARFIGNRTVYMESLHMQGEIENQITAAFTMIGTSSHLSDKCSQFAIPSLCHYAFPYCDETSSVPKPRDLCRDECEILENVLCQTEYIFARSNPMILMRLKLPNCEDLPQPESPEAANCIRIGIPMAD

In the first assay the target is T1, ROR1 expressed on cell surface (Jeko-1 cell line, AMB-LC-0003T and AMB-LC-0002T patient-derived lung cancer … (human, UniProt Q01973 30-937)). Kind of assay: cell-based or functional assay.
T1 sequence (Q01973 30-937): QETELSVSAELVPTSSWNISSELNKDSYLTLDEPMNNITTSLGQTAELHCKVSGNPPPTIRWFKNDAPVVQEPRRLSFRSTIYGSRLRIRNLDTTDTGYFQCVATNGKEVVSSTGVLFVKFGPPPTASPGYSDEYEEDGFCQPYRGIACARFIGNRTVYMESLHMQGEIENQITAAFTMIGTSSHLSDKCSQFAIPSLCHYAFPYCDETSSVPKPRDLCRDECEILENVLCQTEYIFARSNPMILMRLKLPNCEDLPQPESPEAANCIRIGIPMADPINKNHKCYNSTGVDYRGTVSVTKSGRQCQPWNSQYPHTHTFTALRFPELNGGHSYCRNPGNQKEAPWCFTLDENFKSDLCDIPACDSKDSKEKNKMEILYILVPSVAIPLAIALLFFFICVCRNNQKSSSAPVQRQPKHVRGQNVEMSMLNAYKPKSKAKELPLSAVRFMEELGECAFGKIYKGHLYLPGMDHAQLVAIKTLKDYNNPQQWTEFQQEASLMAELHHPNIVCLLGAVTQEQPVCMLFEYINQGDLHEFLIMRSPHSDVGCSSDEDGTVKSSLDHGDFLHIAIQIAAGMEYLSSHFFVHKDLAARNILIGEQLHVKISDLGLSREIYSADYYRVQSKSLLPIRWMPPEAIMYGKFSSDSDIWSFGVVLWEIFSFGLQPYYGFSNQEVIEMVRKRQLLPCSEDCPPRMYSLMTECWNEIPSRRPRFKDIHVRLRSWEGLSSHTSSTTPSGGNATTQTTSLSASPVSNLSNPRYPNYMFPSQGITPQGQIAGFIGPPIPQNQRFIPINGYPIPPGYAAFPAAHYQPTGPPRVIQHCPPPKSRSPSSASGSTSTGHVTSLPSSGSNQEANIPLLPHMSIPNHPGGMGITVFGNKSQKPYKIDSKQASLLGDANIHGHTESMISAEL
For B1, the “Fold Change of IC50, AMB-LC-0002T/AMB-LC-0003T” value came to 22.7 fold; the “IC50 (nM), spheroid volume after 6 days of treatment, AMB-LC-0003T (high ROR1 expression)” value is 5.38 nM; the “IC50 (nM), spheroid volume, AMB-LC-0002T (very low ROR1 expression)” value was found to be 122 nM.
On the same counts, the results for B2 are 15 fold, 10.6 nM and 160 nM.
As to B3, the “Fold Change of IC50, AMB-LC-0002T/AMB-LC-0003T” value was found to be 4.8 fold; the “IC50 (nM), spheroid volume after 6 days of treatment, AMB-LC-0003T (high ROR1 expression)” value was 34.6 nM; the “IC50 (nM), spheroid volume, AMB-LC-0002T (very low ROR1 expression)” value came to 165 nM.

Another assay addresses T1, ROR1 expressed on cell surface (Jeko-1 …). Kind of assay: cell-based or functional assay. This is another data set of the same source.
With B1, the “Fold Change of IC50, AMB-LC-0002T/AMB-LC-0003T” value was found to be 39.7 fold; the “IC50 (nM), spheroid volume, AMB-LC-0002T (low ROR1 expression)” value amounted to 261 nM; the “IC50 (nM), spheroid volume, AMB-LC-0003T (high ROR1 expression)” value was determined as 6.59 nM.

In the next assay the target is T2, human ROR1 (human, UniProt Q01973 30-403, limits assumed).
T2 construct: also called human ROR1 protein
T2 sequence (Q01973 30-403 limits assumed): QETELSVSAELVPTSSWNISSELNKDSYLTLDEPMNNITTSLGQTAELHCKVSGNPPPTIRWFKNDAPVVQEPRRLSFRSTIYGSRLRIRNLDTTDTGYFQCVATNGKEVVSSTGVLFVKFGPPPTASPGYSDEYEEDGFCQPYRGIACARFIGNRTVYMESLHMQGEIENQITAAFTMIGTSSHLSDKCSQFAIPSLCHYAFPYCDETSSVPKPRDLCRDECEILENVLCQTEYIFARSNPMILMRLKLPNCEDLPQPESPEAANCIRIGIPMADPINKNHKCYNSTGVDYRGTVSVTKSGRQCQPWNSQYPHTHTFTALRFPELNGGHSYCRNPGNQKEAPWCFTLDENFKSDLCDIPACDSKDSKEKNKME
Briefly: SPR (Biacore 3000), human ROR1 on CM5 chip, IgG injected, 1:1 Langmuir. How it is done: (§1) To more quantitatively analyze the binding ability of the anti-ROR1 antibody to ROR1, SPR (surface plasmon resonance) was performed. A Biacore 3000 device (GE Healthcare) was used. Using the amine coupling method, human ROR1 or mouse ROR1 was diluted with 10 mM sodium acetate, pH 4.5 and immobilized on a CM5 sensor chip (GE Healthcare) at 300 response units (RU). The activated portion remaining on the surface of the sensor chip was deactivated by adding 1 M ethanolamine-HCl (pH 8.5).
A general note: Surface plasmon resonance follows binding to a sensor surface in real time, without labels.
For B4, the affinity, expressed as Kd, was 0.63 nM; the koff (commonly the rate constant with which the complex falls apart) was 0.00264 s⁻¹; the kon (in general, a measure of how fast the partners come together) was 4.18e+06 M⁻¹ s⁻¹.
The matching figures for B5: 3.71 nM, 0.000202 s⁻¹ and 54300 M⁻¹ s⁻¹.
On the same counts, the results for B6 are 0.033 nM, 7.22e-05 s⁻¹ and 2.19e+06 M⁻¹ s⁻¹.
For B7, the Kd (as a rule, the free concentration of one partner at which half of the binding sites on the other are occupied at equilibrium, for simple one-to-one binding) was found to be 0.00748 nM; the koff was found to be 1.89e-05 s⁻¹; the kon was found to be 2.53e+06 M⁻¹ s⁻¹.
On the same counts, the results for B8 are 0.4 nM, 6.78e-05 s⁻¹ and 169000 M⁻¹ s⁻¹.
On the same counts, the results for B9 are 0.0262 nM, 7.95e-05 s⁻¹ and 3.03e+06 M⁻¹ s⁻¹.
On the same counts, the results for B10 are 0.0152 nM, 4.08e-05 s⁻¹ and 2.66e+06 M⁻¹ s⁻¹.
B11 gave a Kd of 0.0213 nM, a koff of 4.34e-05 s⁻¹ and a kon of 2.04e+06 M⁻¹ s⁻¹.

The target of another assay is T2, human ROR1. Briefly: ELISA, IgG on coated human ROR1, OD450. How it is done:
(§2) A 96-well plate was coated at 4° C. for 16 hours with each of human ROR1 and mouse ROR1 proteins at a concentration of 2 μg/ml and then blocked using […]. […] After washing with PBST and distilled water, binding at room temperature for 1 hour using a goat-derived HRP-conjugated anti-human antibody (Invitrogen, 31482, Goat anti-Human IgG F(ab′)₂ Secondary Antibody, HRP) and then washing again using PBST and distilled water were performed. After color development by adding TMB substrate solution (Thermo Scientific, 34029, 1-Step™ Ultra TMB-ELISA Substrate Solution), the color reaction was stopped with stop solution (Invitrogen, SS04, ELISA Stop Solution), and the absorbance was measured at OD 450 nm. It was confirmed that the anti-ROR1 antibody of the present invention and the modified antibody thereof with improved biological and physical properties […] to human ROR1 and mouse ROR1 (FIG. 2).
A general note: ELISA stands for enzyme-linked immunosorbent assay.
Turning to B4, the EC50 (read off the curve) (as a rule, the concentration at which the effect is half-maximal) is around 1 nM.
B5: the “EC50 (read off the curve)” value was around 2 nM.
On the same count and under the same terms, the same measure for B6: around 0.5 nM; for B7: around 0.5 nM; for B8: around 1 nM.
The same measure, in the same setting: the figure for B9 is around 0.5 nM; for B10 it is around 0.5 nM; for B11 it is around 0.5 nM.

A further assay has as its target T3, mouse ROR1 (mouse, UniProt Q9Z139 30-403, limits assumed).
T3 construct: also called mouse ROR1 protein
Briefly: ELISA, IgG on coated mouse ROR1, OD450. On the procedure:
as §2
B5: the “EC50 (read off the curve)” value was around 3 nM.
For the molecule B6, the “EC50 (read off the curve)” value was around 0.3 nM.
As to B7, the “EC50 (read off the curve)” value is around 0.3 nM.
With B8, the “EC50 (read off the curve)” value was around 1 nM.
Same read-out and setting: the same measure for B9: around 0.3 nM; for B10: around 0.3 nM.
B11: the “EC50 (read off the curve)” value is around 0.3 nM.

Another assay addresses T3, mouse ROR1. Kind of assay: SPR (Biacore 3000), mouse ROR1 on CM5 chip, IgG injected, 1:1 Langmuir. On the procedure: as §1
On to B4, for which the Kd amounted to 230 nM, the koff was found to be 0.129 s⁻¹ and the kon stood at 564000 M⁻¹ s⁻¹.
The molecule B5 came in with a Kd of 6 nM, a koff of 0.000278 s⁻¹ and a kon of 46400 M⁻¹ s⁻¹.
The matching figures for B6: 0.192 nM, 0.00043 s⁻¹ and 2.24e+06 M⁻¹ s⁻¹.
On the same counts, the results for B7 are 0.0416 nM, 0.000106 s⁻¹ and 2.54e+06 M⁻¹ s⁻¹.
B8 had a Kd of 0.833 nM, a koff of 0.0001 s⁻¹ and an on-rate (kon) of 120000 M⁻¹ s⁻¹.
For the molecule B9, the Kd was 0.127 nM, the koff was 0.000548 s⁻¹ and the kon turned out to be 4.3e+06 M⁻¹ s⁻¹.
On the same counts, the results for B10 are 0.0831 nM, 0.000226 s⁻¹ and 2.71e+06 M⁻¹ s⁻¹.
Consider B11, for which binding was put at a Kd of 0.132 nM, the dissociation rate constant (koff) was found to be 0.000282 s⁻¹ and the kon is 2.14e+06 M⁻¹ s⁻¹.

The next assay addresses T4, FZD (human, UniProt Q01973).
T4 construct: frizzled domain, His tag; also called Frizzled domain; human ROR1-frizzled domain
Kind of assay: ELISA, IgG on coated domain, OD450. On the procedure: (§3) ELISA was performed to analyze the binding domain using the IgG antibody of the selected clone.
(§4) After washing with PBST and distilled water, binding at room temperature for 1 hour using a goat-derived HRP-conjugated anti-human antibody (Invitrogen, 31482, Goat anti-Human IgG F(ab′)₂ Secondary Antibody, HRP) and then washing again using PBST and distilled water were performed. After color development by adding TMB substrate solution (Thermo Scientific, 34029, 1-Step™ Ultra TMB-ELISA Substrate Solution), the color reaction was stopped with stop solution (Invitrogen, SS04, ELISA Stop Solution), and the absorbance was measured at OD 450 nm. The anti-ROR1 antibody clone binding to each domain was analyzed through ELISA (FIG. 3).
Turning to B4, the binding result is given as “no binding (tested: 300 nM)”.

The target of the next assay is T5, Ig-like (human, UniProt Q01973).
T5 construct: Ig-like domain, His tag; also called Ig-like domain; human ROR1-immunoglobulin domain
T5 sequence (Q01973 39-151 limits assumed): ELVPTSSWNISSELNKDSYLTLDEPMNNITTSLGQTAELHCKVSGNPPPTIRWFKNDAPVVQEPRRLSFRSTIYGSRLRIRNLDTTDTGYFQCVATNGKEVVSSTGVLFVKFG
Kind of assay: ELISA, IgG on coated domain, OD450. On the procedure:
as §3, §4
As for B12, the binding result is “no binding (tested: 300 nM)”.
The same measure, in the same setting: the same measure for B5: “no binding (tested: 300 nM)”; for B8: “no binding (tested: 300 nM)”.

The target in the next assay is T6, FZD+KRD (human, UniProt Q01973).
T6 construct: frizzled plus kringle domains, His tag; also called FK domain; human ROR1-frizzled-kringle domain
T6 sequence (Q01973 165-395 limits assumed): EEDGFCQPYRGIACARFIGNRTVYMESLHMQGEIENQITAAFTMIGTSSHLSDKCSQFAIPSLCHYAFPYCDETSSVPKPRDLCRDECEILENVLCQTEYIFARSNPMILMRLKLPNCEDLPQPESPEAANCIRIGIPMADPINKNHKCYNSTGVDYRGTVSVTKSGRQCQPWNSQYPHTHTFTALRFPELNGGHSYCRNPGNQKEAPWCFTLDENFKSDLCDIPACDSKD
Kind of assay: ELISA, IgG on coated domain, OD450. How it is done:
as §3, §4
On to B4, for which the binding result is on record as “no binding (tested: 300 nM)”.
Regarding B8, the “EC50 (read off the curve)” value is around 6 nM.
